Measured values published in patent US20240254227A1 (Alector, published 2024).

T1: human CD300LB on primary human macrophages (human, UniProt A8K4G0 18-201)
T1 sequence: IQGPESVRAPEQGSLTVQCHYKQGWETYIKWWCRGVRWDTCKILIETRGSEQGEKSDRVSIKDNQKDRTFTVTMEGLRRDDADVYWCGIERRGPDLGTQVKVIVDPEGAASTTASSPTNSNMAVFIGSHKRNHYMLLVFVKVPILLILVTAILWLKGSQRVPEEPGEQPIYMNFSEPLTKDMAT

T2: murine CD300F stably expressed on Jurkat cells (mouse, UniProt Q6SJQ7 20-337)
T2 construct: also called muCD300F
T2 sequence: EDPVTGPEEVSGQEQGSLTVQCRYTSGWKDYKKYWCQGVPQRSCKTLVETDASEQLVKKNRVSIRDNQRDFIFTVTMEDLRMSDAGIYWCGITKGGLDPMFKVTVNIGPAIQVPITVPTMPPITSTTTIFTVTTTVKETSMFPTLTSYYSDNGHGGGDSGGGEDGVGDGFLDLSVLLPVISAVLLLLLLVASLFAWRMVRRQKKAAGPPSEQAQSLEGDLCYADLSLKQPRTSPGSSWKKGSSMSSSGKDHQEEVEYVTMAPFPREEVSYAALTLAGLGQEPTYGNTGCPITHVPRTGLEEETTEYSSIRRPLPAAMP

T3: murine CD300LB-Fc (mouse)
T3 construct: mouse IgG2a-Fc fusion (R&D Systems); the entry is the whole fusion chain; also called mCD300LB; Mouse CD300LB-Fc
T3 chain: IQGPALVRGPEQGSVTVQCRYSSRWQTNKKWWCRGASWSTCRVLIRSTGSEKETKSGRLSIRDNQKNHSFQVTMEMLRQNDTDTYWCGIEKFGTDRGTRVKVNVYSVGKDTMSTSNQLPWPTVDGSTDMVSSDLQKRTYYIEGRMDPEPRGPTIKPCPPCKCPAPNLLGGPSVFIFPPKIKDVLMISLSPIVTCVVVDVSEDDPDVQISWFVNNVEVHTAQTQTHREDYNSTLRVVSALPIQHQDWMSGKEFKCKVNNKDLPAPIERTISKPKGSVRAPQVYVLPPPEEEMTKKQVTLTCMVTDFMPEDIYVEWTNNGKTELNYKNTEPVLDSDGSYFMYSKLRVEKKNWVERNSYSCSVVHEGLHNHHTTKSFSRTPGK


Tests used:
[1] = biological target: T1, human CD300LB on primary human …; test: flow cytometry, primary human macrophages donor 1278, 10 ug/mL antibody, isotype control subtracted
Description: Human monocytes from various donors were isolated from whole blood using RosetteSep Human Monocyte Enrichment Cocktail (Stemcell technologies) and Ficoll centrifugation per manufacturer protocols. After lysing red blood cells with ACK lysing buffer, monocytes were resuspended in complete media (RPMI, 10% FBS, Pen/Strep, L-glutamine, HEPES, non-essential amino acid, Sodium pyruvate). To obtain macrophages from these isolated monocytes, 100 ng/ml human M-CSF and 8% v/v human serum were added to the cells for 5-7 days. Cells were counted on the day of the experiment and plated at 100,000 cells per well in a round-bottom 96 well plate. Cells were incubated with TruStain Fc block and 10 μg/mL antibody for 1 hour on ice before washing with 250 μL ice cold PBS twice. Cells were then incubated with the appropriate APC-conjugated secondary antibodies for 20 minutes in the dark on ice. Finally, cells were washed twice with ice cold FACS buffer and then resuspended in 100 μL FACS buffer containing 1% propidium iodide. Samples were immediately analyzed using a BD FACSCanto flow cytometer. The gMFI was calculated using FlowJo software minus the gMFI of the appropriate isotype control.

[2] = biological target: T2, murine CD300F stably expressed on …; test: flow cytometry, stable Jurkat cells, 10 ug/mL, isotype subtracted
Description: Purified anti-CD300LB antibodies of the present disclosure were analyzed for cross-reactivity to other murine CD300 family members stably expressed in Jurkat cells (generation of which is described above). Cells were counted and labeled with 200 nM CFSE, 500 nM VioBlue, or a combination of the two to discriminate between muCD300LB, Parental cells, CD300F, and the other CD300 family members. Cells were washed thoroughly with PBS containing 2% fetal bovine serum then resuspended at a total of 240,000 cells per well. Purified antibodies at 10 μg/mL were added and incubated for one hour before the cells were washed twice again and stained with an APC-labeled anti-mouse secondary. Cells were then analyzed using a BD FACSCanto II. Antibodies were analyzed for specific binding to muCD300LB by FlowJo software by gating on live cells, then the APC gMFI calculated for each labeled population by subtracting the gMFI of the isotype control. The gMFI results of the analysis are presented below in Table 4.

murine CD300LB-Fc = biological target: T3, murine CD300LB-Fc; test: SPR (Carterra LSA), antibody immobilised, Fc fusion at 300 or 600 nM
Description: Binding of mouse anti-CD300LB IgG1 antibodies of the present disclosure to human and murine CD300 orthologs were evaluated by surface plasmon resonance (SPR) using a Carterra LSA instrument (Carterra, Salt Lake City, UT). […] A HC200M sensor chip (Carterra) was activated using the single channel flow cell with a 7-minute injection of a 1:1:1 mixture of 100 mM MES pH 5.5, 100 mM sulfo-NHS, 400 mM EDC (all reconstituted in MES pH 5.5; 100 μL of each mixed in vial immediately before running assay). After switching to the multi-channel array flow cell, the antibodies were injected over the activated chip in a 96-spot array for 10 minutes. The remaining unconjugated active groups on the chip were then blocked by injecting 1M Ethanolamine pH 8.5 (Carterra) for 7 minutes using the single channel flow cell. After priming with running buffer (HBS-TE, Carterra) with 0.5 mg/ml BSA (Sigma), the immobilized anti-CD300LB antibodies were tested for their ability to bind human and mouse recombinant CD300LB extracellular domains. Human CD300 family members and mouse CD300A were hIgG1-Fc fusions, while mouse CD300LB, mouse CD300C, mouse CD300D, and mouse CD300E were mouse IgG2a-Fc fusions (R&D Systems). Binding was assessed by injecting each analyte over the entire antibody array using the single channel flow cell. CD300 analytes were diluted to 300 nM or 600 nM in running buffer and injected in series without regeneration. Two or three buffer blanks were run between each mouse or human ortholog, respectively. Data were processed and analyzed using NextGenKIT high-throughput kinetics analysis software (Carterra).
Results of anti-CD300LB antibody binding to human CD300 family members is provided below in Table 7.

gMFI [1] [gMFI] | gMFI [2] [gMFI] | Binder | further results
 | 6.6 | anti-CD300LB antibody CD-18 (antibody, V domains shown) VH: DVQLQESGPDLVKPSQSLSLTCTVTGYSITSGYSWHWIRQFPDNKLEWMGYILSRGDTNFNPSLKSRISITRSTSNNQFFLHFNSVTTEDTATYYCARDFFDYWGQGTTLTVSS VL: DVLMTQTPLSLPVSLGDQASISCRSSQSIVHSNGNTYLEWYLQKPGQSPKLLIYKVSDRFSGVPDRFSGSGSGTDFTLKISRVEAEDLGVYFCFQGSHVPYTFGGGTKLEIK | 
 | 2.1 | anti-CD300LB antibody CD-12 (antibody, V domains shown) VH: QIQLVQSGPELKKPGETVKISCKASGYTFTDYSMHWVRQAPGKGLKWMAWINTETGEATHADDFKGRFDFSLDTSASTAYLQIKNLKNEDTGIYFCVCYGSSYGMDYWGQGTSVTVSS VL: DIVLTQSPASLPVSLGQRATISCRASKSVRTSGASYMHWYQQKPGQPPKLLIYLASNLKSGVPTRFSGSGSGTDFTLNIHPVEEEDAATYYCQHNREVPPTFGGGTKLEIK | 
 | 1.7 | anti-CD300LB antibody CD-17 (antibody, V domains shown) VH: QIQLVQSGPELKKPGETVKISCKASGYTLTDYSMHWVKQAPGKGLKWMGWINTETGEPRYGDDFKGRFAFSLETSASSAYLQINNLKNDDTATYFCATYGRSYGMDFWGQGTSVTVSS VL: DIVLTQSPASLAVSLGQRATISCRASKSVSPSGHSYMHWYQQKPGQPPKLLIYLASNLKSGVPARFSGSGSGTDFTLNIHPVEEGDAATYYCQHNRELPPTFGGGSKLEIK | 
 | 1.85 | anti-CD300LB antibody CD-15 (antibody, V domains shown) VH: QIQLVQSGPELKKPGETVKISCQVSGYTFTDYSMHWLKQAPGKGLKWMAWINTETGESTYTDEFKGRFVFSLETSVRTAYLKINNLKNEDTATYFCGTYGSSYGMAYWGQGTSVTVSS VL: DIVLTQSPASLPVSLGQRATISCRASKSVSTSGSSYLHWYQQKPGQPPKLLIYLASKLESGVPARFRGSGSGTDFTLNIHPVEEEDAATYYCQHNREVPPTFGGGTKLEIK | 

More lines, now with the values behind:

Binder | gMFI [1] [gMFI] | gMFI [2] [gMFI] | further results
anti-CD300LB antibody CD-07 (antibody, V domains shown) VH: QVQLVQSGAEVKKPGASVKVSCKASGYTFTNYRMHWVRQAPGQGLEWMGWINPNSGGTIYAQKFQGRVTMTRDTSTSTVYMELSSLRSEDTAVYYCARDLDYWGQGTLVTVSS VL: DIQMTQSPSSLSASVGDRVTITCQASQDISNYLNWYQQKPGKAPKLLIYGASSLQSGVPSRFSGSGSGTDFTLTISSLQPEDFATYYCQQSYSTPWTFGPGTKVEIK | 211000 |  | 
anti-CD300LB antibody CD-05 (antibody, V domains shown) VH: QVQLVQSGAEVKKPGASVKVSCKASGYTFSRYYINWVRQAPGQGLEWMGWINPNSGGTNYAQKFQGRVTMTRDTSTSTVYMELSSLRSEDTAVYYCTTDQLRFGKTGPYYGMDVWGQGTTVTVSS VL: DIQMTQSPSSLSASVGDRVTITCRASQNIGTYLNWYQQKPGKAPKLLIYAASSLQSGVPSRFSGSGSGTDFTLTISSLQPEDFATYYCQQSYSDTLTFGGGTKVEIK | 175000 |  | 
anti-CD300LB antibody CD-06 (antibody, V domains shown) VH: QVQLVQSGAEVKKPGASVKVSCKASGYTFTTYAVHWVRQAPGQGLEWMGIVNPNSGGTNYAQKFQGRVTMTRDTSTSTVYMELSSLRSEDTAVYYCARDIVPMNNFYNYYYGMDVWGQGTTVTVSS VL: DIQMTQSPSSLSASVGDRVTITCRASQSISSYLNWYQQKPGKAPKLLIYATSTLQSGVPSRFSGSGSGTDFTLTISSLQPEDFATYYCQQSYRIPYTFGQGTKVEIK | 169000 |  | 
anti-CD300LB antibody CD-11 (antibody, V domains shown) VH: QIQLVQSGPEVKKPGETVKISCKASGYTLTDYSMHWVMQTPGTGLKWMAWMNTETGEPTYADDFKGRFAFSLETSAGTAYLQIDNLKNEDTATYFCATYGKSYGMKYWGQGTSVTVSS VL: DIVLTQSPPSLAVSLGQRATISCRATKSVSPYLHWYQQTPGQPPKLLIYLASNLDSGVPARFSGSGSGTDFTLNIHPVEEEDAATYYCQHNKELPPTFGGGTRLEIK |  | 2.35 | 
anti-CD300LB antibody CD-01 (antibody, V domains shown) VH: RVQLQQSGAELVRPGASVTLSCKASGFTFTDFEMHWVKKTPVHGLEWIGAIDPESGNTAYNQKFRGKATLTADKSSSTAYMELRYLTSEDSAVYYCTPLISGADYWGQGTTLTVSS VL: DVVMTQSPLSLPVSLGDQASISCRSSQSLVHSDGNTYLYWYLQKPGQSPKLLIYKVSNRFSGVPDRFSGSGSGTDFTFKISRVGAEDLGVYFCSQSTHVPWTFGGGTKLEII |  |  | SPR binding (control subtracted) (murine CD300LB-Fc): 29
